Holding throughout (assay): cell-based or functional assay
Test [1] addresses S protein of authentic SARS-CoV-2 G614 virus (SARS-CoV-2) (UniProt P0DTC2).
Test [2] has as its target S protein of Pangolin-GD on S-pseudotyped VSV (Pangolin-GD (clade 1b sarbecovirus)).
The target in test [3] is S protein of RaTG13 on S-pseudotyped VSV (RaTG13 (clade 1b sarbecovirus)).

As to DXP-604 IgG (antibody), the IC50, microneutralization assay with authentic virus in test [1] was found to be 0.3 nM. Besides, the IC50, S-pseudotyped VSV neutralization assay in test [2] was 0.05 nM; in test [3], 0.01 nM.

For the origin of these results see patent publication US20240209065A1.
